Data as given in US20190275196A1, “Hemostatic Powders with Self-Assembling Peptide Hydrogels” (3-D Matrix, Ltd., priority 2016, published 2019).

Columns and labels:
Type in all cases: physicochemical
[1] = Congo Red assay of gel formation of peptide solutions with hemostatic powders; settings: for gel formation when mixed with hemostatic powder compared with pure peptide solution: Congo Red assay, visual
Procedure: A Congo Red assay was performed to determine gel formation of peptide solutions in a saline buffer solution (pH 7.4) when used with hemostatic powders.
Pure self-assembling peptide solution (PuraMatrix®), and peptide solution/hemostatic powders (Surgiflo®, Ethicon) mixtures were plated on a glass slide. After 30 seconds, 1% Congo Red solution in saline buffer solution (pH 7.4) was added around and on top of the gel aliquots and then the excess Congo Red solution was wiped off prior to examination. Visualization of gel formation determined the success or failure of gelation. […] In (1) and (2), self-assembling peptide solution (PuraMatrix®) before and after Congo red assay, respectively is shown. In (3) and (4), PuraMatrix® mixed with absorbable gelatin powder (Surgiflo®, Ethicon) at a ratio of 2 to 1 (v/w) before and after Congo red assay, respectively is shown. In (5) and (6), PuraMatrix® mixed with absorbable gelatin powder (Surgiflo®, Ethicon) at a ratio of 5 to 1 (v/w) before and after Congo red assay, respectively is shown.
Pure self-assembling peptide solution (IEIK13 1.3% at pH3.0) and peptide solution/hemostatic powders (Surgiflo®, Ethicon) mixture were plated on a glass slide. After 30 seconds, 1% Congo Red solution in saline buffer solution ([…]) was added around and on top of the gel aliquots and then the excess Congo Red solution was wiped off prior to examination. Visualization of gel formation determined the success or failure of gelation. […] In (1) and (2), self-assembling peptide solution (IEIK13 1.3% at pH 3.0) before and after Congo Red assay, respectively, is shown. In (3) and (4), IEIK13 1.3% at pH 3.0 mixed with absorbable gelatin powder, (Surgiflo®, Ethicon) at a ratio of 2 to 1 (v/w) before and after Congo Red assay, respectively, is shown. The interval of grids in FIG. 8 is 1 cm.

[2] = Apparent miscibility of gelatin powder with peptide solution or saline (syringe mixing); settings: various mixing ratios, mixed between two luer-lock syringes, plated on glass slide
Procedure: Gelatin powder (Surgiflo®) was separately mixed with saline and RADA16 2.5% solution (PuraMatrix®) to determine their apparent miscibility. Gelatin powders were placed in a luer-lock syringe and saline or RADA16 2.5% solution (PuraMatrix®) was placed in another luer-lock syringe. The syringes were connected to mix the contents of the two syringes by moving the plungers back and forth, for example, six times until the consistency was even. The mixtures were plated on a glass slide. FIG. 3 presents images of gelatin powder (Surgiflo®) and saline mixtures (upside images) and gelatin powder and RADA16 2.5% (PuraMatrix®) mixtures at various mixing ratios.
Gelatin powder (Surgiflo®) was mixed with IEIK13 1.3% (pH 3.0) solution to determine its apparent miscibility. Gelatin powders were placed in a luer-lock syringe and IEIK13 1.3% (pH 3.0) was placed in another luor-lock syringe. The syringes were connected to mix contents of the two syringes by moving the plungers back and forth, for example, six times until the consistency was even. The mixtures were plated on a glass slide. FIG. 9 presents images of gelatin powder (Surgiflo®) and IEIK13 mixtures at various mixing ratios.

[3] = Rheology (storage/loss modulus, frequency sweep) before and after DMEM treatment; settings: DMEM for 20 min; 25° C.; 1-10 rad/sec
Procedure: The rheological properties of gelatin powders with saline, self-assembling peptide, and gelatin powder with self-assembling peptide were evaluated using a rheometer (DHR-1, TA Instruments) with 20 mm plates. The samples were placed on the rheometer plate and the moduli were measured at 25° C. with the plates placed at a measuring geometry gap of 1000 μm. Measurements were performed after 2 minutes of relaxation time at 25° C. Frequency sweep tests were performed at 1 rad/sec˜10 red/sec of oscillation stress with strain at 0.01.
Pure RADA16 2.5% (PuraMatrix®), gelatin powder (Surgiflo®) mixed with saline at 2:1 w/v ratio, and gelatin powder mixed with RADA16 2.5% at various mixing ratios were all tested. These samples were treated with DMEM for 20 min after their frequency tests were performed without DMEM treatment. FIG. 4 presents the rheology of gelatin powders mixed with saline at a ratio of 2:1 w/v before and after DMEM treatment. FIG. 5 presents the rheology of RADA16 2.5% solution before and after DMEM treatment. FIG. 6 presents the rheology of gelatin powders mixed with RADA16 2.5% at a ratio of 1:5 w/v before and after DMEM treatment.

[4] = peptide solution mixed with gelatin powder (Surgiflo®) at a ratio of 2 to 1 (v/w), 1% Congo Red in saline buffer solution (pH 7.4)

IEIK13 1.3% (pH3.0): self-assembling peptide having the repeating sequence Ile-Glu-Ile-Lys (IEIK), 1.3% solution at pH 3.0
gel formation when mixed with hemostatic powder compared with pure peptide solution [1]: gelled even when mixed with hemostatic powder to a similar extent as observed in pure peptide solution | gel formation (gelation) ([1]; mixed with a hemostatic powder at a ratio of 5 to 1, expected, not tested): capable of gelation | gel formation (gelation) [1, 4]: capable of gelation | apparent miscibility with gelatin powder (Surgiflo®) [2]: capable of homogenous mixture | apparent miscibility with gelatin powder (Surgiflo®) ([2]; listed as IEIK13): homogeneously mixed across various mixing ratios

RADARADARADARADA [RADA16 2.5%]
gel formation when mixed with hemostatic powder compared with pure peptide solution [1]: gelled even when mixed with hemostatic powder to a similar extent as observed in pure peptide solution | gel formation (gelation) [1, 4]: capable of gelation | gel formation (gelation) ([1]; peptide solution mixed with gelatin powder (Surgiflo®) at a ratio of 5 to 1 (v/w), 1% Congo Red in saline buffer solution (pH 7.4)): capable of gelation | apparent miscibility with gelatin powder (Surgiflo®) [2]: capable of homogenous mixture | apparent miscibility with gelatin powder (Surgiflo®) ([2]; listed as RADA16): homogeneously mixed across various mixing ratios | change of moduli (storage/loss) after DMEM treatment [3]: increased
